Measured values reported in the nanobody polyreactivity screen of Harvey et al. (2022).

Test: yeast display, Sf9 membrane polyspecificity reagent, FACS + sequencing; frameworks hold sequencing errors
In short: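 Sorting gates, low and high (top ~1%), were placed on anti-HA fluorescence to track expression and on streptavidin fluorescence to track reagent binding. A clone's polyreactivity label is taken from the gate it came out of. The reagent was 10% biotinylated, detergent-solubilized Sf9 membrane, applied for 1 hour at 4 °C to galactose-induced yeast display cells.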

| Sequence | polyreactivity (PSR sort gate) |
| --- | --- |
| QVQLVESGGGLVQAGGSIRLSCAASGFIFKWYAMGWYRQAPGKERELVAVINRSGSTYYADSVKGRFTISRDNAKNTVYLQMNSLKPEDTAVYYCAAVQQYSSVYYYTYDYWGQGTQVTVSS | high polyreactivity |
| QGQLVESGGGLVQAGGSLRLSCAASGRTLQYNAMGWYRPAPGKEWELVAAITSNGGSTYYADSVKGRFPISRDNAKNTVYLQMNSQKPEDTAVYDCAKAYRYVDRGYRLLRYGYWGQGNQVTVSS | high polyreactivity |
| QVQLVESGGGLVQAGGSLRLSCAASGRTFLINAMGWYRQAPGKEREMVAAITQSGGSTYYADSVKGRFTISRDNAKYTVYLQMNSLKPEDTAVYNCNATPDSVRWDYALSVVRYEYWGQGTQVTVSS | low polyreactivity |
| QVQLVESGGGLVQAGGSLRLSCAASGRILHFYAMGWYRQAPGKERELVAAISKSGGSTYYADSVKGRFTISRDNAKNTVYLQMNSLKPEDTAVYYCAASFIRRGSYSTTSAPGRYYWGQGTQVTVSS | high polyreactivity |
| QVQLVESGGGLVQAGGSLRLSCAASGSIFGWYAMGWYRQAPGKEREFVAAISGGSTYYADSVKGRFTISRDNAKNTVYLQMNSLKPEDTAVYYCNAQGYYFYPFDYWGQGTQVTVSS | high polyreactivity |
| QVQLVESGGGLVQAGGSLRISCAASGSIFRVYAMGWYRPAPGKERELVASITLSGGSTYYADSVKGRVTISRDNAKNTVYLQMNSLKPDDTAVYSCAARKRYRNPNTSRGMDYWGQGTQVNVSS | high polyreactivity |
| EVQLVESGVGLVQAGGSLRLSCAASASIFLSYAMGCYRQAPGKVRELVDAISRRGGSTYYADSVKGRFTISRDFAKNTVYLQMNSLKPEDTAVYYCAADLTGPYDYWGQGTQVTVSS | high polyreactivity |
| QVQLVESGGGLVQAGGSLRLSSAASGRIFKDNAMGWYRQAPGKERELVAAISSGASTSYADSVKGRFTISRDNAKNTVYLQMNSLKPEDTAVYYCNRGGYLYYPGWLFDYWGQGTQVTVSS | low polyreactivity |
| QVQLVESGGGLVQAGGSLRISCAASGFTFYRYAMGWYRQAPGKERELVAAISSDGTTYNADSVKGRFTISRDNAKNTVYLQINSLKPEDNAVYYCAKRGYYRSRRYDYWGQGTQVNVSS | high polyreactivity |
| QVQLGESGGGLVQAGGSLRLSCAASGSISTYYPMGWYRQATGKERELVASITSRASTNYADSVKGRFTISRDNAKNTVYLQMNSLKPEDTAGNYCNADQRDYGSYVTKLDYWGQGTQVTVSS | low polyreactivity |
| QVQLVESGGGLVQAGGSLRLSCAASGSTFTCYAMGWNRQAPRKERELVADITWRDGSTYYADSVKGRFTISRDNAKNTVYLQMNSLKPEDTAVYYCNGRRDYDMDWGQVTQVTVSS | high polyreactivity |
| QVQLVESGGGLVQAGGSLRLSCAASGSTFRLYAMGWYRQAPGKERELVAAISSGGTTKYADSVKGRFTISRDNAKNTVYLQMNSLKPEDTAVYYCNRRARSYADDYWGQGTQVTVSS | high polyreactivity |
| QVQLVESGGGLVQAGGSLRLSCAASGFTFRRYAMGWYRQAPGKERELVASISWTGGSTHYADSVKGRFTISRDNAKNTVYLQMNSLKPEDSAVYYSNTVWYYLRSFNIDHYYDYWGQGTQVTVSS | high polyreactivity |
| QVQLVESGGGLVQAGGSLRLSCAASGLIFRKYAMGWYRQAPGKERELVAAISRSGGSTYYADSVKGRFTISRDNAKTTVYLQMNSLKPEDTAVYYGAAQQHYGDGYWGQGTQVTVSS | high polyreactivity |
| QVQLVESGGGLVQAGGRLRISCAASGSIFGTYTMGWYRLAPGEERELVAAITSDGRTYYADSVKGRFTISRDNAKNTVYLQMNSLKPEDTAVYYCAADSSGYYWFNYWGQGTQVTVSS | low polyreactivity |
| QVQLVESGGGLVQAGGSLRLSCAASGRIFSPYAMGWYRQAPGKERELVAAISYDDGITYYADSVKGRFTISRDNAKNTVYLQMNCLKPEDTAVYYCAADSVTRPAGDYWGQGTQVTVSS | low polyreactivity |
| QVQLVESGGGLVQAGGSLRLSCAASGSIFRRYDMGWYRQAPGKERELVAAISSSGGSTYYADSVKGRFTISRDNAKNTVYLHMKSLKPEDTAVYYCAADIYDYDRSEYTEYDYWGQGTQVTVSS | low polyreactivity |
| QVQLVESGGGLVQAGGSLRLSCAASGGIFGKYAMGWYRQAPGKERELVAAITSSGGSTFYADSVKGRFTNSRDNAKNTVYLQMNSLKPEDTAVYYCAARFSSYVRRYYYWGQGTQVTVSS | high polyreactivity |
| QVKLVESGGCLVQSGGSLRLSCADYRSIFWNNSMGWYRQATGKEWELGAGISSAGSTNYSDSVKGRFTISRDNAKNTVYLQMNSLKPEDTAVYYCAAEQYRYGIRRRHYDYWGQGTQVTLSS | low polyreactivity |
| QVQLVESGGGLVQAGGSLRLSCAASGIILRYYAMGWYRQAPGKERELVASITSSGGRTYYADSVKGRFRISRDNAKNTVYLQMNSLKPEDTAVDYCAAKWAVVSGYGYWGQGTQVTVSS | high polyreactivity |
| QVQLQERGGGLVQAGGSLRLSCAASCTIFRFRYMGGHRQAPGKERELVAGINGGTTTYYADSEIGRFTMSRDNAKNTLYLQMNSLKPDDTAVYNCAAGDSRLTYYDYWGQGTQVTVSS | low polyreactivity |
| QVQLVESGGGLVQAGGRLRLSCAATGFTFTYYPMGWYRQATGKETEFVAAITWNSGTTYYADSVKGRFTISRDNAKNTVYLQMISLKPEDTAVYYCNALWHRQRWSRGDYWRQGTQVTVSS | high polyreactivity |

| Sequence | polyreactivity (PSR sort gate) |
| --- | --- |
| QVQLVESGGGLVQAGGSLRLSCDASGRIFYNYAMGWYRQAPGTERELVAAISGSGGSTYYADSVKGRFTISRDNAKNTVYLQMNSLKPEDTAVYDCSTFGPQYYSRNFDYWGQGTLVTVSS | low polyreactivity |
| QVQLVESGGGLVQAGRSLRLSCAASGTFIGYAMVWYRQAPGKERELVAAIDESGGSTYYADSVKGRFTISRDNAKNTVYLQMNSLKPEDTAVYYCAAYRYYSDYDYWGQGTQVTVSS | low polyreactivity |
| QVQLVESGGGLVQAGGSLRLSCAASGLIFVNYAMGWYRQAPGKERELVAAISVSGGSTYYADSVKGRFTISRDNAKNTVYLQMNSLNPEDTAVYYCNAYFRSQRYGYRVDYWGQGTQVTVSS | high polyreactivity |
| QVQLGESGGGLVQAGCSLRLSCAASGSIFIAYDMGWYRQAPGKERELVAAISIIDGSTYYADSVKRRFTISRDNAKNTVYLQMNSLKPEDTAVYYCSTRVFYLYDYWGQGTQVTVSS | low polyreactivity |
| QDQLVESGAGLVQAGGSLRLSCAASGFNFYRYAMGWYREAPGKERELVATISVRGGTYYADSVKGRFTISRDNAKNTVYLQMNSLKPEDTAVYYCAARVHLWGDTLKFVRVGYWGQGTQVTVSS | low polyreactivity |
| QVQLVESGGGLVQAGGSLRLTCAASGRTFPSYTMGWYRQAPGKERELVAAITWSGGSTYADSVKGRFSISRDNAKNTVYLQMKSLKPEDSAVYYCNAPIIAYDDGGSLVRYGRGDYWGQGTQVTVSS | low polyreactivity |
| QVQLVESGGGLVQAGGSLRLICAATGFTFHNNVMGWYRQAPGKERELVATISKSGGSTYYADSVKGRFTISRDNAKNTVYLQMNRLKPEDTAVYYCARRYRDYGRYGYWGQGTQVTVSS | high polyreactivity |
| QVQLVESGGGLVQAGGSLRLSCAASGSTIYRNAMVWYRQAPGKERELVAAISKSGGSTYYADTVKGRFTISRDNAKNTVYLQMNSQKPEDTAVYYCNSRYWVTTGGYWGQGTQVTVSS | high polyreactivity |
| QVQLVESGGGLVQAGGSLRLSCAASGITFRKYAMGWYRQAPGTERELVAAISAGGGRTFYADSVKGRFTISRDNAKNTVYLQMNSLKPEDTAVYYCNADLGIGYDYWGQGTQVTVSS | high polyreactivity |
| QVQLVESGGGLVQAGGSLRLSCAASGFTIAYNAMGWYRQAPGKERDLVAAISSSGGRTYYADSVKGRFTISRDNAKNTVYFQMNSLKPEDTAVYYCATRPKVAYEYVYWGQGTQVTVSS | high polyreactivity |
| QVQLVESGGGLVQAGGSLRLSCAASGRIFWSYAMGWYRQAPGKERELVAAIRSGGTTDYADAVKGRFTISRDNAKYTVYLQMNSLKPEDTADYYCNREYRGAINYIYYYWGQGTQVTVSS | low polyreactivity |
| QVHLVESGGGLFQAGGSLRLSFAATGLTFSPYARGWYRHGPGKERELVASITNGGRTYYADSVKGRFTISRDNAKITVYLQMNSLKPEDTAVYYCAAYPRGARRLDYWGQGTQVTVSS | high polyreactivity |
| QVQLVESAGGLVQAGGSLRLSCAASGNFGYNAIAWNRQAPGKETELVAAITSSGTSTYYADSVKGRLTISRDNAKNTVYLQMNSLKPEDTAVYYCAALPSGTWTGFGYWGQGTQVTVSS | low polyreactivity |
| QLQLEESGRGLVQAGGSLRLSCAASGSIFYSNTMGWYRQAPGKERELVAAISTSDTSTYYADSVKGRFTISREKAKNTVYLQMNSLKPEDTAVYYCNAVGSIVLYGYWGQGTQVTVSS | low polyreactivity |
| QVQLVESGGGLVQAGGSLRLSCAASGSIFDDYAMGWYRPAPGKEREVVAAISSGGSTYYADSVKGRFTISRDNAKNTVYLQMNSLKPEDTAVYYCNALYPQVGFGYWGQGTQVTVSS | low polyreactivity |
| QVQLVESGGGLVQAGGSLRLSCASSGSIFEGYVMGWYRQAPGKERELVAAITTGGGSTYYADSVKGRFTISRDNAKNTVYLQMTSLKPEDTAVYYCAKDYWFGYEYWGQGTQVTVSS | low polyreactivity |
| QVQLVESGGGLVQAGGSLRLSCAASGSIFEIYAMGWYRQAPGKERQLVASITWSGGSTYYADSVKGRFTISRDNAKNTVYLQMNSLKPEDTAVYYCATDKLYGRTVRMDYWGQGTQVTVSS | low polyreactivity |
| QVQLVESGGGLVQAGGSLRLSCAPSGYIFPEYVMGWYRQSPGKERELVAVITWDGTSTYADSVKGRFTISRDNAKNTVYLQMNSLIPVDTAVYYCAADTNYYVDTAGYGDGLDSWGQGTQVTVSS | low polyreactivity |
| QVQLVESGGGLVQAGGSLRLSCAASGSIFRGYTMGWYRQAPGKERELVAAISWSGGSTYYADSVKGRFTISRDNAKNTVYLQMNSLKPEDTAVYDCAAGDYYHRIFLWYDYWGQGTQVTVSS | low polyreactivity |
| QVQLVESGGGLVQAVGSLRLSCAASGSTLTSYGMGWYRQAPGKERELVAAISRNGGGTYYADSVKGRFTISRDNAKNTVYLQMNSLKPEDTAGYYCAVVRYSSRYDYWGQGTQVTVSS | high polyreactivity |
| QVQLEESGGGLVQAGGSLRLSCAASGFISFAYAMGWYIQAPGKERELVAGISRSGDSTYYADSVKGRFTISRDNAKNTVYLQMNSLKPEDTAVYYCAARQVDWFDYTTAQVGSYKVNYWGQGTQVTVSS | low polyreactivity |
